Earlier results as cited in PMC6679586.
pKd: −log10 of the molar value.

Biological target: Activin A mature domain mature domain (Homo sapiens) (UniProt P08476)

pKd: 8.30
Substance: Activin A prodomain prodomain (from UniProt P08476)
